The Human Domainome abundance scans (Beltran et al. 2025)
± gives the uncertainty stated by the source.

B1: CD2-associated protein, residues 1 to 59; numbered along this chain, Q9Y5K6 (parent)
chain: MVDYIVEYDYDAVHDDELTIRVGEIIRNVKKLQEEGWLEGELNGRRGMFPDNFVKEIKR

Variants of: B1
Test: abundance fitness (aPCA) (normalised: wild type 0, dead -1); higher = more abundant; growth selection in yeast, the domain comes from the species named
Conditions: Homo sapiens

Abundance fitness, by site and new letter:
T19: H -0.399 ± 0.23, W -0.929 ± 0.23, R -0.66 ± 0.16, S -0.033 ± 0.066, F -0.841 ± 0.34, Y -0.846 ± 0.22, P -0.685 ± 0.19, K -0.464 ± 0.09, N -0.224 ± 0.11, C -0.384 ± 0.11, M -0.713 ± 0.18, I -0.753 ± 0.16, D -0.36 ± 0.15, G -0.792 ± 0.17, Q -0.498 ± 0.14, L -0.682 ± 0.11, A -0.756 ± 0.14
L18: V -0.499 ± 0.14, Y -0.904 ± 0.43, F -0.846 ± 0.44, K -0.737 ± 0.46, S -0.651 ± 0.23, C -0.661 ± 0.49, A -0.683 ± 0.34, M -0.244 ± 0.11, R -0.504 ± 0.32
E24: C -0.625 ± 0.13, D 0.321 ± 0.27, Q -0.263 ± 0.18, R -0.687 ± 0.087, N -0.412 ± 0.44, F -0.338 ± 0.26, M -0.387 ± 0.12, G -0.341 ± 0.073, T -0.449 ± 0.14
V13: Q -0.268 ± 0.23, T -0.275 ± 0.11, H -0.358 ± 0.47, M -0.058 ± 0.18, N -0.164 ± 0.17, S 0.067 ± 0.1, K -0.074 ± 0.14, P -0.726 ± 0.19, I -0.431 ± 0.33, L -0.188 ± 0.095, W -0.197 ± 0.13, G -0.046 ± 0.079, Y -0.328 ± 0.25, R -0.149 ± 0.077, F -0.354 ± 0.22, E -0.058 ± 0.18
D9: K -0.369 ± 0.32, C -0.671 ± 0.37, A -0.091 ± 0.14, S -0.172 ± 0.13, N -0.276 ± 0.4, L -0.92 ± 0.24, R -0.417 ± 0.11, T -0.725 ± 0.21, E -0.346 ± 0.12, V -0.77 ± 0.37, G -0.242 ± 0.096
E7: Q -0.131 ± 0.11, L -0.004 ± 0.057, D -0.256 ± 0.15, R -0.087 ± 0.074, I 0.025 ± 0.15, Y -0.18 ± 0.18, T 0.028 ± 0.074, N -0.311 ± 0.17, P -0.697 ± 0.13, H -0.581 ± 0.35, A -0.135 ± 0.079, V 0.008 ± 0.072, S -0.212 ± 0.094
R21: P -0.793 ± 0.43, V -0.755 ± 0.12, L -0.358 ± 0.088, S -0.433 ± 0.091, H -0.161 ± 0.15, M -0.713 ± 0.31, T -0.593 ± 0.13, N -0.827 ± 0.37, Y -1 ± 0.33, Q -0.414 ± 0.24, A -0.826 ± 0.19, C -0.284 ± 0.1, K -0.28 ± 0.36
D3: A -0.232 ± 0.066, I -0.453 ± 0.094, K -0.297 ± 0.079, L -0.267 ± 0.051, P -0.436 ± 0.11, G -0.437 ± 0.065, H -0.188 ± 0.1, R -0.255 ± 0.046, M -0.135 ± 0.072, C -0.237 ± 0.085, V -0.379 ± 0.067, Q -0.188 ± 0.068, S -0.048 ± 0.055, E 0.014 ± 0.065, N 0.012 ± 0.18
Y8: C 0.096 ± 0.11, P -0.918 ± 0.34, Q 0.04 ± 0.12, W -0.139 ± 0.094, M -0.261 ± 0.12, R 0.097 ± 0.098, I 0.184 ± 0.2, L -0.047 ± 0.084, D -0.197 ± 0.22, S 0.013 ± 0.078, V -0.154 ± 0.11, A 0.002 ± 0.082, F 0.078 ± 0.18, H 0.148 ± 0.23, K 0.057 ± 0.12, E -0.02 ± 0.099, G -0.026 ± 0.1, T 0.123 ± 0.16
H14: Q -0.086 ± 0.15, A -0.113 ± 0.14, G -0.031 ± 0.087, L -0.217 ± 0.093, P -0.946 ± 0.26, W -0.455 ± 0.17, D -0.113 ± 0.18, V -0.186 ± 0.092, K 0.088 ± 0.15, E -0.016 ± 0.13, C 0.152 ± 0.17, R 0.021 ± 0.091, N 0.09 ± 0.15, T -0.001 ± 0.12
Y10: R -0.014 ± 0.062, I -0.812 ± 0.37, P -0.904 ± 0.26, M -0.667 ± 0.11, W -0.037 ± 0.062, N -0.599 ± 0.33, H -0.257 ± 0.28, S -0.999 ± 0.17, V -1.06 ± 0.39, E -0.787 ± 0.19, L -0.782 ± 0.1, T -0.878 ± 0.18, Q -1.18 ± 0.31, A -0.787 ± 0.14, D -0.473 ± 0.46, K -0.322 ± 0.077, G -0.671 ± 0.21, C -0.569 ± 0.22
V6: K -0.579 ± 0.18, F -0.483 ± 0.13, T -0.367 ± 0.082, G -0.438 ± 0.066, A -0.08 ± 0.063, Y -0.52 ± 0.14, M -0.795 ± 0.2, R -0.875 ± 0.12, E -0.96 ± 0.33, N -1.04 ± 0.31, S -0.363 ± 0.054, P -1.2 ± 0.39, H -0.832 ± 0.2
V2: Y -0.166 ± 0.22, L -0.087 ± 0.074, M 0.087 ± 0.12, K 0.086 ± 0.093, A -0.074 ± 0.071, T -0.095 ± 0.2, E -0.031 ± 0.096, N 0.064 ± 0.27, S -0.029 ± 0.15, D -0.119 ± 0.22, Q -0.224 ± 0.18, I 0.054 ± 0.16, C -0.062 ± 0.12, R -0.084 ± 0.099, W -0.138 ± 0.2, F 0.008 ± 0.14, H -0.486 ± 0.21
M1: L 0.015 ± 0.097, N -0.425 ± 0.34, T -0.228 ± 0.11, E -0.276 ± 0.23, I 0.078 ± 0.17, V -0.153 ± 0.15, S 0.072 ± 0.14, A 0.05 ± 0.4, C -0.28 ± 0.15, G -0.14 ± 0.14, F -0.137 ± 0.38, Q -0.301 ± 0.34, W -0.163 ± 0.1, K 0.142 ± 0.12, R -0.083 ± 0.12, H -0.209 ± 0.21, Y -0.375 ± 0.37
I20: S -0.743 ± 0.2, C -0.292 ± 0.14, M -0.019 ± 0.11, P -0.762 ± 0.22, F -0.373 ± 0.13, A -0.546 ± 0.14, D -0.933 ± 0.34, W -0.736 ± 0.39, N -0.792 ± 0.24, L -0.014 ± 0.057, V -0.225 ± 0.082
Y4: T -0.136 ± 0.12, I -0.844 ± 0.28, W -0.166 ± 0.098, K -0.486 ± 0.15, H -0.554 ± 0.21, L -0.476 ± 0.11, R -0.404 ± 0.091, V -0.042 ± 0.13, A -0.254 ± 0.15, P -0.863 ± 0.35, M -0.086 ± 0.13, Q -0.687 ± 0.39, C -0.173 ± 0.14, D -0.826 ± 0.26
A12: K -0.205 ± 0.14, V -1.02 ± 0.24, L -1.12 ± 0.16, W -0.942 ± 0.22, H -0.924 ± 0.43, N -0.618 ± 0.22, I -0.782 ± 0.21, Y -1.05 ± 0.4, C -0.35 ± 0.14, T -0.716 ± 0.25, M -0.842 ± 0.22, S -0.157 ± 0.088, Q -0.349 ± 0.12, R -0.416 ± 0.07, E -0.435 ± 0.18, P -0.591 ± 0.1, D -0.846 ± 0.44
D16: L -0.13 ± 0.076, S -0.036 ± 0.076, T 0.005 ± 0.09, W -0.08 ± 0.094, P -0.434 ± 0.13, F -0.297 ± 0.15, A -0.045 ± 0.059, N 0.001 ± 0.16, K -0.095 ± 0.13, E -0.115 ± 0.086, V -0.088 ± 0.065, G -0.069 ± 0.068, M -0.073 ± 0.13, Y 0.03 ± 0.14, C 0.229 ± 0.18, Q -0.12 ± 0.15
D11: Y -0.242 ± 0.14, N -0.086 ± 0.17, V -0.002 ± 0.16
D15: P -0.13 ± 0.2, H -0.078 ± 0.14, K -0.078 ± 0.14, W -0.453 ± 0.13, A -0.011 ± 0.092, Q -0.008 ± 0.11, V -0.038 ± 0.069, F -0.325 ± 0.09, R -0.146 ± 0.076, S -0.098 ± 0.06, Y -0.204 ± 0.11, E 0.002 ± 0.094, C -0.284 ± 0.17, L -0.142 ± 0.054, G -0.051 ± 0.12, I -0.415 ± 0.24, M -0.305 ± 0.096
G23: N -0.581 ± 0.24, R -0.856 ± 0.18, L -1.17 ± 0.28, I -0.739 ± 0.34, K -0.383 ± 0.2, A -0.911 ± 0.29, Y -0.522 ± 0.24, P -1.04 ± 0.33, W -0.955 ± 0.33, Q -0.557 ± 0.26, S -0.651 ± 0.14, T -0.755 ± 0.24, V -0.844 ± 0.21, M -0.918 ± 0.34, C -0.831 ± 0.22
I5: E -0.267 ± 0.18, P -0.979 ± 0.41, A -0.544 ± 0.17, N -0.681 ± 0.36, V -0.097 ± 0.075, M 0 ± 0.14, S -0.317 ± 0.1, R -0.128 ± 0.12, D -0.556 ± 0.32, Q 0.037 ± 0.18, L -0.105 ± 0.1, T -0.335 ± 0.14, G -0.704 ± 0.16, C -0.343 ± 0.21
E17: N -0.421 ± 0.23, G -0.34 ± 0.095, A -0.628 ± 0.13, D -0.13 ± 0.4, C -0.407 ± 0.27, V -0.747 ± 0.23, F -0.466 ± 0.33, T -0.461 ± 0.27, Q 0.146 ± 0.14, R -0.567 ± 0.14, L -0.882 ± 0.25, M -0.534 ± 0.18, Y -0.736 ± 0.38
V22: F -0.17 ± 0.21, G -0.02 ± 0.19, I -0.273 ± 0.15, H -0.201 ± 0.18, Y -0.301 ± 0.25, T -0.067 ± 0.14, E 0.115 ± 0.16, M -0.52 ± 0.2, W -0.703 ± 0.47, R -0.082 ± 0.12, C -0.304 ± 0.22, A 0.16 ± 0.15, L -0.438 ± 0.1, S -0.09 ± 0.086
